US20180037631A1 (Bristol-Myers Squibb, published 2018)
Changes are numbered by the printed parent chain.

B1: E6 (designed binder)
10Fn3 domain: MGVSDVPRDLEVVAATPTSLLISWQVPRPMYQYYRITYGETGGNSPVQEFTVPYDVYTATISGLKPGVDYTITVYAVTDSYNPATHEYKYHQTPISINYRTEIDKPSQ
B2: E7 (designed binder)
10Fn3 domain: B1 10Fn3 domain with Y57H
B3: E8 (designed binder)
10Fn3 domain: B1 10Fn3 domain with V56L, Y57T
B4: E9 (designed binder)
10Fn3 domain: B1 10Fn3 domain with Q25E, V26A, P27N, R28P, P29S, M30R, Y54H, V56L, Y57N
B5: E100 (designed binder)
10Fn3 domain: MGVSDVPRDLEVVAATPTSLLISWTPANKSYQYYRITYGETGGNSPVQEFTVPHDLVTATISGLKPGVDYTITVYAVTDHKPHADGPHTYHEYPISINYRTEIDKPSQ
B6: E104 (designed binder)
10Fn3 domain: B5 10Fn3 domain with T25D, P26A, A27G, N28A, K29V, S30T
B7: E106 (designed binder)
10Fn3 domain: B5 10Fn3 domain with T25D, P26A, A27P, N28A, K29V, S30T, H54Y, L56V, V57Y, H80Y
B8: E102 (designed binder)
10Fn3 domain: B5 10Fn3 domain with Y93S
B9: E107 (designed binder)
10Fn3 domain: MGVSDVPRDLEVVAATPTSLLISWDSGRGSYQYYRITYGETGGNSPVQEFTVPYDVYTATISGLKPGVDYTITVYAVTDMMHVEYTEHPISINYRTEIDKPSQH
B10: E103 (designed binder)
10Fn3 domain: MGVSDVPRDLEVVAATPTSLLISWTPANKSYQYYRITYGETGGNSPVQEFTVPGGVRTATISGLKPGVDYTITVYAVTNMMHVEYSEYPISINYRTEIDKPSQ
B11: E111 (designed binder)
10Fn3 domain: B10 10Fn3 domain with T25D, P26A, A27P, N28T, K29S, S30R, G54H, G55D, V56L, R57V
B12: E112 (designed binder)
10Fn3 domain: MGVSDVPRDLEVVAATPTSLLISWDAGAVTYQYYRITYGETGGNSPVQEFTVPGGVRTATISGLKPGVDYTITVYAVTDYKPHADGPHTYHEYPISINYRTEIDKPSQ
B13: E108 (designed binder)
10Fn3 domain: B12 10Fn3 domain with G27P, Y93S
B14: E99 (designed binder)
10Fn3 domain: B12 10Fn3 domain with G27P, A28T, V29S, T30R
B15: E110 (designed binder)
10Fn3 domain: B12 10Fn3 domain with Y93S
B16: E105 (designed binder)
10Fn3 domain: B12 10Fn3 domain with G27P, A28T, V29S, T30R, V56L, R57S, Y93S
B17: E109 (designed binder)
10Fn3 domain: B5 10Fn3 domain with T25D, P26A, A27P, N28T, K29S, S30R, H80Y, Y93S
B18: E101 (designed binder)
10Fn3 domain: B12 10Fn3 domain with G27P, G54H, G55D, V56L, R57V, Y93S
B19: E69 (designed binder)
10Fn3 domain: MGVSDVPRDLEVVAATPTSLLISWHAGMAVYQYYRITYGETGGNSPVQEFTVPGDVLTATISGLKPGVDYTITVYAVTDFFNPVTHEYMYHTIPISINYRTEIDKPSQ
B20: E71 (designed binder)
10Fn3 domain: B19 10Fn3 domain with H25W, A26F, M28T, A29S, V30S, V56L, L57K, F80Y, M89E, I93T
B21: E70 (designed binder)
10Fn3 domain: MGVSDVPRDLEVVAATPTSLLISWVSARGRYQYYRITYGETGGNSPVQEFTVPGGVRTATISGLKPGVDYTITVYAVTDYYNLETYEYHYYRTPISINYRTEIDKPSQ
B22: E72 (designed binder)
10Fn3 domain: MGVSDVPRDLEVVAATPTSLLISWSATRTLYQYYRITYGETGGNSPVQEFTVPYDVHTATISGLKPGVDYTITVYAVTDYYNMVTYEYNYHLTPISINYRTEIDKPSQ
B23: E75 (designed binder)
10Fn3 domain: B19 10Fn3 domain with H25A, M28R, V30T, G54Y, L57T, F81Y, V84A, M89Y, H91E, I93T
B24: E85 (designed binder)
10Fn3 domain: MGVSDVPRDLEVVAATPTSLLISWTQGSTHYQYYRITYGETGGNSPVQEFTVPGMVYTATISGLKPGVDYTITVYAVTDYFDRSTHEYKYRTTPISINYRTEIDKPSQ
B25: E73 (designed binder)
10Fn3 domain: MGVSDVPRDLEVVVATPTSLLISWTKLLGGYQYYRITYGETGGNSPVQEFTVPGPVYTATISGLKPGVDYTITVYAVTDFFNPRTHEYQYHTTPISINYRTEIDKPSQ
B26: E83 (designed binder)
10Fn3 domain: MGVSDVPRDLEVVAATPTSLLISWMFVGMSYQYYRITYGETGGNSPVQEFTVPYGVHTATISGLKPGVDYTITVYAVTDYFNPATHEYIYHVTPISINYRTEIDKPSQ
B27: E77 (designed binder)
10Fn3 domain: MGVSDVPRDLEVVAATPTSLLISWSSATRPYQYYRITYGETGGNSPVQEFTVPGGVRTATISGLKPGVDYTITVYAVTDFFNPTTHEYYYHTTPISINYRTEIDKPSQ
B28: E78 (designed binder)
10Fn3 domain: B27 10Fn3 domain with S26V, A27E, T28R, R29S, P30V, F80Y, F81Y, T84S, Y89N, H91L
B29: E4 (designed binder)
10Fn3 domain: B27 10Fn3 domain with S25H, S26E, A27R, T28D, R29G, P30S, Y31R, F80Y, Y89I, H91Q
B30: E80 (designed binder)
10Fn3 domain: B27 10Fn3 domain with A27S, T28H, P30R, G55S, R57A, F80Y, T84D, Y89L, T92A
B31: E76 (designed binder)
10Fn3 domain: MGVSDVPRDLEVVAATPTSLLISWYSQPLTYQYYRITYGETGGNSPVQEFTVPHDVNTATISGLKPGVDYTITVYAVTDFYNPETHEYTYHLTPISINYRTEIDKPSQ
B32: E74 (designed binder)
10Fn3 domain: MGVSDVPRDLEVVAATPTSLLISWRASGGLYQYYRITYGETGGNSPVQEFTVPGSVNTATISGLKPGVDYTITVYAVTDFYNPATYEYIYHTTPISINYRTEIDKPSQ
B33: E82 (designed binder)
10Fn3 domain: B12 10Fn3 domain with D25R, A26V, G27L, A28V, V29D, T30M, R57L, A84V, H91Y, Y93S
B34: E84 (designed binder)
10Fn3 domain: MGVSDVPRDLEVVAATPTSLLISWTLHRKNYQYYRITYGETGGNSPVQEFTVPGGVVTATISGLKPGVDYTITVYAVTDYYNPATHEYDYRTTPISINYRTEIDKPSQ
B35: E81 (designed binder)
10Fn3 domain: MGVSDVPRDLEVVAATPTSLLISWDNNSNSYQYYRITYGETGGNSPVQEFTVPYDLRTATISGLKPGVDYTITVYAVTDYKPHTEGEHTYHESPISINYRTEIDKPSQ
B36: E79 (designed binder)
10Fn3 domain: MGVSDVPRDLEVVAATPTSLLISWQDTSSYHQYYRITYGETGGNSPVQEFTVPGGVRTATISGLKPGVDYTITVYAVTDYFNPSTHEYIYRTIPISINYRTEIDKPSQ

What follows are binders tested against T1, EGFR on the surface of human tumour cells (A431, H292) (human, UniProt P00533 25-1210) (assay: cell-based or functional assay).

| Binder | % inhibition of EGFR phosphorylation at 100 nM binder, cell-based assay |
| --- | --- |
| B1 | 80% |
| B2 | 89.4% |
| B3 | 92.4% |
| B4 | 77.3% |

Target: T1, EGFR on the surface of human tumour …
Test: cell-based or functional assay
Remark: another data set of the same source

| Binder | % inhibition of EGFR phosphorylation at 100 nM binder, cell-based assay |
| --- | --- |
| B5 | 83.3% |
| B6 | 89.3% |
| B7 | 84% |
| B8 | 80% |
| B9 | 75.8% |
| B10 | 76.3% |
| B11 | 85.5% |
| B12 | 86.2% |
| B13 | 80% |
| B14 | 84.7% |
| B15 | 81.3% |
| B16 | 87% |
| B17 | 90.9% |
| B18 | 90.9% |

Target: T1, EGFR on the surface of human tumour …
Test: cell-based or functional assay
Remark: another data set of the same source

| Binder | % inhibition of EGFR phosphorylation at 100 nM binder, cell-based assay |
| --- | --- |
| B19 | 85.1% |
| B20 | 80.4% |
| B21 | 76.8% |
| B22 | 82.8% |

Target: T1, EGFR on the surface of human tumour …
Test: cell-based or functional assay
Remark: another data set of the same source

| Binder | % inhibition of EGFR phosphorylation at 100 nM binder, cell-based assay |
| --- | --- |
| B23 | 76.5% |
| B24 | 89.3% |
| B25 | 78.8% |
| B26 | 90.7% |
| B27 | 81.1% |
| B28 | 76.9% |
| B29 | 94.3% |
| B30 | 89.6% |
| B31 | 79% |
| B32 | 80.9% |
| B33 | 77.2% |
| B34 | 86.5% |
| B35 | 75.1% |
| B36 | 99.2% |
